Measurements from the supplement of paper PMC10724198.
± gives the standard deviation of the averaged measurements.
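Also: PSI is a weighted mean of sequencing reads over stability bins, variants kept only with over 10 reads, mCherry proximal and sfGFP distal, peptide attached via GGGS linker.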

These sequences were tested on Saccharomyces cerevisiae (assay: protein stability index of tFT-peptide fusion (C-terminal peptide) (PSI (0-1 scale)); higher = more stable (slower turnover)). Settings: genetic background: wild type; temperature: 30 C.
Protocol: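 Multiplexed protein stability (MPS) profiling in S. cerevisiae. Random 12-aa peptides (tFT-X12 library) are fused to the C-terminus of a sfGFP-mCherry tandem fluorescent timer, after mCherry and a GGGS linker. Cells are FACS-sorted into 8 mCherry/sfGFP bins and deep-sequenced. The protein stability index (PSI) is the read-weighted bin average, scaled from 0 (unstable) to 1 (stable). Only peptides with >10 reads are reported; cells were grown at 30 °C in SC-His with glucose.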
DSVRRMAEGKRE was tested, and the protein stability index was 0.672 ± 0.029. With DSVVGFCGYWGG the protein stability index was 0.706 ± 0.088. For DSWGPGVSSRRW, the protein stability index was 0.732 ± 0.044. With DTRNKHTKSKCQ the protein stability index was 0.741 ± 0.051. With DTSPSPPPLSVL the protein stability index was 0.693 ± 0.017. Work on DTTSSPPLPLLV yielded a protein stability index of 0.623 ± 0.035. Work on DTVYSRAIAANA yielded a protein stability index of 0.545 ± 0.012. With DVAWHNYRISGK the protein stability index was 0.673 ± 0.015. DVDYGEIDYQIK was tested, and the protein stability index was 0.708 ± 0.011. With DVGSRGPPHTDG the protein stability index was 0.687 ± 0.074. DVILVSLPPPSV was tested, and the protein stability index was 0.676 ± 0.049. DVLASSSVWFLI showed a protein stability index of 0.624 ± 0.0057. DVLGCFDYLLFR was tested, and the protein stability index was 0.623 ± 0.03. For DVLRLRSVFFCG, the protein stability index was 0.631 ± 0.047. For DVPKSGLEVWRR, the protein stability index was 0.627 ± 0.067. DVQISSGRGVCS was tested, and the protein stability index was 0.672 ± 0.054. For DVRMGCVGVSNI, the protein stability index was 0.71 ± 0.0088. DVRNDSSLIIQI showed a protein stability index of 0.688 ± 0.053. DVSIFTNELGFY showed a protein stability index of 0.763 ± 0.01. With DWFGGSVRVDEN the protein stability index was 0.693 ± 0.055. With DWGAGAASRADR the protein stability index was 0.708 ± 0.015. In the case of DWHLLVRRPFSR, the protein stability index is reported as 0.714 ± 0.042. DWWFGQVYLSKE was tested, and the protein stability index was 0.705 ± 0.011. For DWWLPLFDWAKL, the protein stability index was 0.872 ± 0.025. For DYLVRGPPRASG, the protein stability index was 0.629 ± 0.021. DYNQWSAHHYGV showed a protein stability index of 0.693 ± 0.029. Work on DYRLWFRGLPSL yielded a protein stability index of 0.697 ± 0.035. For EAAVTESVTGKR, the protein stability index was 0.679 ± 0.0088. EAIMNSLLFAVD gave a protein stability index of 0.664 ± 0.0088. With EAKRSRCESAEI the protein stability index was 0.672 ± 0.01. Work on EARLGGESSAWG yielded a protein stability index of 0.655 ± 0.053. In the case of EAVNLDSWAAGQ, the protein stability index is reported as 0.828 ± 0.058. Sequence EAYRVTYPYMYP has a protein stability index of 0.726 ± 0.0086. ECFVCGGGILGG showed a protein stability index of 0.637 ± 0.09. In the case of ECGLGGGGGLGV, the protein stability index is reported as 0.689 ± 0.077. ECSPRQVPSLAE gave a protein stability index of 0.694 ± 0.028. ECVPEVACCPWR gave a protein stability index of 0.729 ± 0.03. Sequence EDCTKNPERDNS has a protein stability index of 0.68 ± 0.048. Sequence EDMRGATGRGAG has a protein stability index of 0.669 ± 0.028. EDTMGKTASHTR gave a protein stability index of 0.699 ± 0.019. Work on EEEGRRREEETS yielded a protein stability index of 0.67 ± 0.041. With EEGARAAGGEPQ the protein stability index was 0.68 ± 0.036. With EEREGPVGKGGG the protein stability index was 0.708 ± 0.044. Work on EESNEERDQEKT yielded a protein stability index of 0.63 ± 0.0065. For EEVKKRTLKVID, the protein stability index was 0.738 ± 0.021. For EEWRRRSTKERR, the protein stability index was 0.641 ± 0.013. EFALVFVRARRA was tested, and the protein stability index was 0.586 ± 0.047. For EFANKGIKINTA, the protein stability index was 0.625 ± 0.019. In the case of EFLGTVRSVWRK, the protein stability index is reported as 0.669 ± 0.086. Sequence EFLVSVRPFASP has a protein stability index of 0.696 ± 0.032. With EFPSFHDQGAYM the protein stability index was 0.738 ± 0.062. EFSWGGLAGSFG was tested, and the protein stability index was 0.68 ± 0.024. For EFTGVYLWERGW, the protein stability index was 0.7 ± 0.041. For EGDGQGGGGQGG, the protein stability index was 0.695 ± 0.011. With EGEERGEGQVRA the protein stability index was 0.675 ± 0.0068. Sequence EGGCCRMVGVVK has a protein stability index of 0.633 ± 0.0024. EGGGASELGAPN was tested, and the protein stability index was 0.567 ± 0.095. In the case of EGGGGKGRKRRA, the protein stability index is reported as 0.712 ± 0.022. Work on EGGIYLQMCVGS yielded a protein stability index of 0.616 ± 0.035. EGGTGNHSVSNQ was tested, and the protein stability index was 0.654 ± 0.022. For EGGVGGRAPRVR, the protein stability index was 0.747 ± 0.098. For EGITFGNDECWC, the protein stability index was 0.782 ± 0.095. In the case of EGLNASGGGSGG, the protein stability index is reported as 0.644 ± 0.07. EGLPGGLRGCLR showed a protein stability index of 0.687 ± 0.021. EGLVRVCSRHYR gave a protein stability index of 0.67 ± 0.0083. With EGNPPTRPRSLG the protein stability index was 0.682 ± 0.052. In the case of EGRDDIVEKKRR, the protein stability index is reported as 0.66 ± 0.063. EGREGQRHRRVI showed a protein stability index of 0.669 ± 0.01. Work on EGREGVFGEGRA yielded a protein stability index of 0.703 ± 0.031. Work on EGRKTLWEGNRG yielded a protein stability index of 0.609 ± 0.059. In the case of EGRRGVGGAWEG, the protein stability index is reported as 0.6573 ± 0.0037. With EGSSGVLESRAG the protein stability index was 0.671 ± 0.026. With EGSSVITFAGGG the protein stability index was 0.664 ± 0.046. For EGTSYWDPSVPG, the protein stability index was 0.741 ± 0.045. In the case of EHERQQYKNYNK, the protein stability index is reported as 0.671 ± 0.057. EIERTKNEGEEG showed a protein stability index of 0.67 ± 0.058. EIRKGGVRSTSN was tested, and the protein stability index was 0.668 ± 0.13. With EIVTQQKIMDKK the protein stability index was 0.711 ± 0.012. EKCIGKRGLTKY gave a protein stability index of 0.703 ± 0.022. Sequence EKERKIKEREVT has a protein stability index of 0.631 ± 0.018. For EKGSKTGNKPQT, the protein stability index was 0.688 ± 0.048. Work on EKIKKQITRTRR yielded a protein stability index of 0.6652 ± 0.0053. Work on EKIVHEGAHGWR yielded a protein stability index of 0.681 ± 0.02. EKKKKRNKVNQN was tested, and the protein stability index was 0.709 ± 0.064. For EKKYKKKYKKKE, the protein stability index was 0.641 ± 0.031. Work on EKMILEIKRGRI yielded a protein stability index of 0.688 ± 0.036. Sequence EKNDKEYKRSIS has a protein stability index of 0.665 ± 0.06. For EKNKRMEVKAKR, the protein stability index was 0.67 ± 0.0096. For EKNTNVDHNRNF, the protein stability index was 0.7384 ± 0.0061. Work on EKPKEGKNETKK yielded a protein stability index of 0.734 ± 0.042. In the case of EKQKNLPQEAKQ, the protein stability index is reported as 0.7 ± 0.02. For EKRINLKKRGKT, the protein stability index was 0.669 ± 0.064. ELCAFLFYPFVV gave a protein stability index of 0.599 ± 0.039. Sequence ELEGKIMNITVW has a protein stability index of 0.661 ± 0.024. ELGNREGVGYEV showed a protein stability index of 0.781 ± 0.17. For ELKRVCVHRTER, the protein stability index was 0.7 ± 0.025. Work on ELLHMAAGLGGR yielded a protein stability index of 0.643 ± 0.015. ELNSGLLRSKET showed a protein stability index of 0.661 ± 0.0095. ELQVSGNTIIVV was tested, and the protein stability index was 0.529 ± 0.032. ELRSAIRAVPFL gave a protein stability index of 0.737 ± 0.028. ELRSVLDRDVRV gave a protein stability index of 0.725 ± 0.049. ELWCLGVLGGDV showed a protein stability index of 0.708 ± 0.0089. ENCPPETLNRGE showed a protein stability index of 0.686 ± 0.081. ENLFLRRVWFCR showed a protein stability index of 0.686 ± 0.022. In the case of ENLRKLGIALWG, the protein stability index is reported as 0.682 ± 0.14. With ENQGEKQKKKKR the protein stability index was 0.685 ± 0.013. Work on ENRGIEITGKRS yielded a protein stability index of 0.727 ± 0.022. For ENVAKKEKITKK, the protein stability index was 0.694 ± 0.02. With EPAAHCGERRHL the protein stability index was 0.608 ± 0.064. Sequence EPAFMRRFMSNK has a protein stability index of 0.657 ± 0.016. Sequence EPKLPPCPTPPS has a protein stability index of 0.721 ± 0.012. Work on EPRWPCNVAGIV yielded a protein stability index of 0.706 ± 0.13. Work on EQKYHTCEDAQK yielded a protein stability index of 0.685 ± 0.1. EQQTPIKKNKQR was tested, and the protein stability index was 0.826 ± 0.036. EQSERGIQQGTN showed a protein stability index of 0.633 ± 0.02. EQWSAHSMLSGR gave a protein stability index of 0.705 ± 0.026. Sequence EREKERNKNGKY has a protein stability index of 0.671 ± 0.013. With ERKHIISKGMNN the protein stability index was 0.608 ± 0.041. ERKRPLAKKTKN was tested, and the protein stability index was 0.643 ± 0.055. For ERNSKKKRKRRL, the protein stability index was 0.701 ± 0.08. ERTDEKTAEKER was tested, and the protein stability index was 0.7012 ± 0.0049. ERYLCVGIAHGP was tested, and the protein stability index was 0.706 ± 0.02. With ESAGESRREFGG the protein stability index was 0.693 ± 0.011. For ESAGPSIYKLVT, the protein stability index was 0.638 ± 0.0092. With ESDSEITYNKKQ the protein stability index was 0.729 ± 0.012. ESGDKYKRRTQP was tested, and the protein stability index was 0.699 ± 0.052. ESIQAASANDSQ was tested, and the protein stability index was 0.688 ± 0.043. ESIQGRHRMSCL gave a protein stability index of 0.6912 ± 0.006. Work on ESLLFICAHALV yielded a protein stability index of 0.566 ± 0.017. ESLVIIIAGSMF showed a protein stability index of 0.567 ± 0.15. With ESLVSFTRPFSR the protein stability index was 0.748 ± 0.026. ESNFTLIRKIRT gave a protein stability index of 0.64 ± 0.0065. Sequence ESQSLLLFQEPS has a protein stability index of 0.696 ± 0.057. With ESRARRRQGGKR the protein stability index was 0.738 ± 0.015. With ESRVTNKQSYQA the protein stability index was 0.678 ± 0.03. ETALKVGSVGGV showed a protein stability index of 0.71037 ± 6.9e-05. In the case of ETCIWDGRPIAS, the protein stability index is reported as 0.723 ± 0.085. ETGTRELIRQWV gave a protein stability index of 0.718 ± 0.02. In the case of EVGFPGRSWGAG, the protein stability index is reported as 0.689 ± 0.07. EVGWMPFYLVGL gave a protein stability index of 0.67 ± 0.11. With EVKKTFCFSKDI the protein stability index was 0.672 ± 0.011. EVPGALISLHFY was tested, and the protein stability index was 0.654 ± 0.038. Sequence EVRCVFTGWHSS has a protein stability index of 0.785 ± 0.096. EVSRCRTVPVWL was tested, and the protein stability index was 0.662 ± 0.07. EVTGGRGGEGGV showed a protein stability index of 0.694 ± 0.046. With EVVGGSESRELG the protein stability index was 0.6569 ± 0.0027. EVWGGFGGGGGS was tested, and the protein stability index was 0.72 ± 0.027. For EWCVRKATRDIE, the protein stability index was 0.659 ± 0.014. Work on EWGAGGVVVGGW yielded a protein stability index of 0.718 ± 0.043. EWLCLRGCCVLY gave a protein stability index of 0.667 ± 0.015. In the case of EWLRYNKDKRKI, the protein stability index is reported as 0.774 ± 0.14. EWQAGSDRRFYW gave a protein stability index of 0.618 ± 0.013. In the case of EWSGWVGKCGRG, the protein stability index is reported as 0.6644 ± 0.0059. EYCSSCLADLSP gave a protein stability index of 0.69 ± 0.074. Work on EYYRYLPVLIRL yielded a protein stability index of 0.467 ± 0.055.
